This series in a line: yeast display, Sf9 membrane polyspecificity reagent, FACS + sequencing; frameworks hold sequencing errors. The method, boiled down:
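Galactose induction of a Saccharomyces cerevisiae BJ5465 synthetic nanobody display library ran 36–48 hours. The cells were then stained for 1 hour at 4 °C with 10% biotinylated, detergent-solubilized Sf9 membrane reagent, pulled down on streptavidin microbeads and FACS-sorted into low and high (top ~1%) gates on expression and reagent-binding fluorescence. Labels for polyreactivity follow the gate of origin.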
Turning to “QVQLVESGGGLVQAGGSLRLSCAASGITFPVYTMGWYRPAPVKERELVAAITSSGGSTYYADSVKGRFTISRDNAKNTVYLQMISLKQEDTAVYYCAARDYGRHHSYGYWGQGTQVTVSS”, the “polyreactivity (PSR sort gate)” value is listed as “high polyreactivity”.
As for “QVQLVESGGGLVQAGGSLRLSCAASGITFPVYTMGWYRQAPGKERALVAAISRSGGRTYYADSVKGRFTISSDNAKNTVYLQMNSLKPEDTAVYYCAVRQATVTGGGYWGQGTQVTVSS”, the “polyreactivity (PSR sort gate)” value is on record as “high polyreactivity”.
With “QVQLVESGGGLVQAGGSLRLSCAASGITFPWYAMGWYIQAPGKERELVAAISFSGGSTYYADSVKWRFTISRDNAKNTVYLQMNCLKPVDTAVYYCAAVDGYSYIYAAGDYWGQGTQVTVSS” the entry was “low polyreactivity”; with “QVQLVESGGGLVQAGGSLRLSCAASGITFPYNAMGWYRQAPGKERELVASINSGDSTNYADSVKGRFTISRDNAKNTVYLQMNSLKPEDTAVYYCAAADYWHYKYDYWGQGTQVTVSS”, “low polyreactivity”.
To “QVQLVESGGGLVQAGGSLRLSCAASGITFPYYAMGWYRQAPGKERELVAAITIRSGRTYYADSVKGRFTISRDNAKNTVYLQMNSLKPEDTAVYYCAARLSNTYGYWGQGTQVTVSS” belongs “high polyreactivity”; to “QVQLVESGGGLVQAGGSLRLSCAASGITFQGYTIGWYRQAPGKERELVAAISSNGGRTYYADSVKGRFTISRDNAKNTVYLQMNSLKPEDTAVYYCAARKWRLIVDYWGQGTQVTVSS”, “high polyreactivity”; to “QVQLVESGGGLVQAGGSLRLSCAASGITFQKYVMGWYRQAPGKEREFVAAITARGGTTYYADSVKGRFTISRDNAKNTVYLQMNSLKPEDTAVYYCAARSYYSGLAYYYWGQGTQVTVSS”, “high polyreactivity”.
For the sequence “QVQLVESGGGLVQAGGSLRLSCAASGITFQNYAMGWYRQAPGKERELVAAITGRGGSTYYADSVKGRFTISRDNAKHTVYLQMNSLKPEDTAVYYCATDRRGYRDDYWGQGTQVTVSS”, the “polyreactivity (PSR sort gate)” value is “high polyreactivity”.
With “QVQLVESGGGLVQAGGSLRLSCAASGITFQRYAMGWYRQAPGKERELVAAISTNGGTTYYADSVKGRFTISRDNAKNTVYLQMNSLKPEDTAVYFCNAESGYVYYIRYNYWGQGTQVTVSS” the entry was “high polyreactivity”; with “QVQLVESGGGLVQAGGSLRLSCAASGITFQRYAMGWYRQAPGKVRELVAAITRRGGSTYYADSVKGRFTISRDNAKNTVYLQMNSLKPEDTAVYYCAADLFFKARGYDYWGQGTQVTVSS”, “high polyreactivity”; with “QVQLVESGGGLVQAGGSLRLSCAASGITFQWNAMGWYRQAPGKERELVAAISSGTSTYYADSVKGRFTISRDNAKNTVYLQMNSLKPEDTAVYYCNAVKSWGHPGRYYWGQGTQVTVSS”, “high polyreactivity”.
To “QVQLVESGGGLVQAGGSLRLSCAASGITFQYYAMGWYRQAPGKERELVAAITSSGVSTYYADSVKGRFTISRDNAKNTVYLQMNSLKPEDTAVYYCNTVVRGWSTSAYDYWGQGTQVTVSS” belongs “low polyreactivity”; to “QVQLVESGGGLVQAGGSLRLSCAASGITFRDYAMGWYRQAPGKERELVAAISRSVGSTYYADSVKGRFTISRDNAKNTVYLQMNSLKPEDTAVYYCAALSQREFDYWGQGTQVTVSS”, “high polyreactivity”.
As for “QVQLVESGGGLVQAGGSLRLSCAASGITFRGNVMGWYRQAPGKERELVAAISGSSGRTYYADSVKGRFTISRDNAKNTVYLQMYSLKPEDTAVYYCAATRTVRSYSIAPALGYWGQGTQVTVSS”, the “polyreactivity (PSR sort gate)” value is given as “high polyreactivity”.
Regarding “QVQLVESGGGLVQAGGSLRLSCAASGITFRGYAMGWYRQAPGKERELVAAINSGGSTNYADAVKGRFTISRDNAKNTVYLQMNSLKPDDPAVYYCAADDYPYGNYYWGQGTQVTVSS”, the “polyreactivity (PSR sort gate)” value was “high polyreactivity”.
“QVQLVESGGGLVQAGGSLRLSCAASGITFRGYAMGWYRQAPGKERELVADITWNGGSTYYADSVKGRFTISRDNAKNTVYLQMNSLKPEDPAVYYCAADGYRIYWSSYRFYYWGQGTQVTVSS”: the “polyreactivity (PSR sort gate)” value is on record as “high polyreactivity”.

For the origin of these results see the nanobody polyreactivity screen of Harvey et al. (2022).
